Source: US20240317872A1 (WUXI BIOLOGICS IRELAND, published 2024)
Changes are numbered by the printed parent chain. Numbers in names are those of the source.

B1: T8311-U14T2.G25R-1.uIgG1 (bispecific antibody)
heavy: not shown
light 1: SYELTQPPSVSVSPGQTASITCSGSELPKRYAYWYQQKPGQSIVRVIYKDSERPSGISERFSGSSSGNTATLTISGTQAMDEADYYCSSTYGDRKLPIFGGGTKLTVLGQPKAAPSVTLFPPSSEELQANKATLVCLISDFYPGAVTVAWKADSSPVKAGVETTTPSKQSNNKYAASSYLSLTPEQWKSHKSYSCQVTHEGSTVEKTVAPTECS
light 2: SYVLTQPPSVSVAPGQTARMTCGGDNIGIKIVHWYQQKAGQAPVLVVYDDNDRPSGIPDRFSGSNSGNTATLTISRVAAGDEADYYCQVWDRRSDHVVFGGGTKLTVLPDIQNPDPAVYQLRDSKSSDKSVCLFTDFDSQTQVSQSKDSDVYITDKCVLDMRSMDFKSNSAVAWSQKSDFACANAFQNSIIPEDTFFPSPESS
notes: Symmetric 2+2 format G25R, human IgG1 Fc; PD-L1 x 4-1BB; also called T8311-1
B2: T8311-U14T2.G25R-54.uIgG1 (bispecific antibody)
heavy: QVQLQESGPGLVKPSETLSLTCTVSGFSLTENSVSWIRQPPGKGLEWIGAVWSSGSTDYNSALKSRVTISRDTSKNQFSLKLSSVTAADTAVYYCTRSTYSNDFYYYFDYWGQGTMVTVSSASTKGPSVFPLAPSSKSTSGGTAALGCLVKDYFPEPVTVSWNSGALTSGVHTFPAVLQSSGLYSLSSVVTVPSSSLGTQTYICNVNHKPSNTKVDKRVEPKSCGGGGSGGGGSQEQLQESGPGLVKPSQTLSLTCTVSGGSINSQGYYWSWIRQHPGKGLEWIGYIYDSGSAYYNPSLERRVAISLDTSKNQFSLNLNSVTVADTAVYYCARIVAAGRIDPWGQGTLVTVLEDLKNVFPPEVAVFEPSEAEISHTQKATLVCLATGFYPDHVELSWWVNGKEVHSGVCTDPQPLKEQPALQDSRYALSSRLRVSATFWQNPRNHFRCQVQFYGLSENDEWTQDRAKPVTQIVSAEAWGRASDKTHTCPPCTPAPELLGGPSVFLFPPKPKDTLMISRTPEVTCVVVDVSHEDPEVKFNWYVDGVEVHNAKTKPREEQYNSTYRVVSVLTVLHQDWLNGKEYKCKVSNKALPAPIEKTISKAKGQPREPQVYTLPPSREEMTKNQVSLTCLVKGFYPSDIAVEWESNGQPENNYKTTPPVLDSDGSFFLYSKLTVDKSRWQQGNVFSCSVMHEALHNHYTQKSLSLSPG
light 1: B1 light 1
light 2: SYVLTQPPSVSVAPGQTARMTCGGDNIGIKIVHWYQQKAGQAPVLVVYDDNDRPSGIPDRFSGSNSGNTATLTISRVAAGDEADYYCQVWDRRSDHVVFGGGTKLTVLPDIQNPDCAVYQLRDSKSSDKSVCLFTDFDSQTQVSQSKDSDVYITDKCVLDMRSMDFKSNSAVAWSQKSDFACANAFQNSIICEDTFFPS
notes: also called T8311-54
B3: T8311-U14T2.G25R-47.uIgG1 (bispecific antibody)
heavy: not shown
light 1: B1 light 1
light 2: B2 light 2 with C116P, S144C, N188C, C192P
notes: also called T8311-47
B4: T8311-U14T2.G25R-50.uIgG1 (bispecific antibody)
heavy: not shown
light 1: B1 light 1
light 2: B2 light 2 with C116P, Q142C, S189C, C192P
notes: also called T8311-50
B5: T8311-U14T2.G25R-57.uIgG1 (bispecific antibody)
heavy: not shown
light 1: B1 light 1
light 2: B2 light 2 with C192P, D194C
notes: also called T8311-57; design 57
B6: T8311-U14T2.G25R-48.uIgG1 (bispecific antibody)
heavy: not shown
light 1: B1 light 1
light 2: B2 light 2 with C116P, S146C, N188C, C192P
notes: also called T8311-48
B7: T8311-U14T2.G25R-56.uIgG1 (bispecific antibody)
heavy: not shown
light 1: B1 light 1
light 2: B2 light 2 with C116P, T141C
notes: also called T8311-56
B8: T8311-U14T2.G25R-58.uIgG1 (bispecific antibody)
heavy: not shown
light 1: B1 light 1
light 2: B2 light 2 with C192P, T195C
notes: also called T8311-58
B9: T8311-U14T2.G25R-51.uIgG1 (bispecific antibody)
heavy: not shown
light 1: B1 light 1
light 2: B2 light 2 with C116P, V143C, S189C, C192P
notes: also called T8311-51
B10: T8311-U14T2.G25R-52.uIgG1 (bispecific antibody)
heavy: not shown
light 1: B1 light 1
light 2: B2 light 2 with C116P, S144C, S189C, C192P
notes: also called T8311-52
B11: T8311-U14T2.G25R-61.uIgG1 (bispecific antibody)
heavy: not shown
light 1: B1 light 1
light 2: B2 light 2 with C116P, C192P, P198C
notes: also called T8311-61; Design-61
B12: T8311-U14T2.G25R-59.uIgG1 (bispecific antibody)
heavy: not shown
light 1: B1 light 1
light 2: B2 light 2 with C116P, A117C, C192P, F196C
notes: also called T8311-59
B13: T8311-U14T2.G25R-49.uIgG1 (bispecific antibody)
heavy: not shown
light 1: B1 light 1
light 2: B2 light 2 with C116P, K147C, N188C, C192P
notes: also called T8311-49
B14: T8311-U14T2.G25R-53.uIgG1 (bispecific antibody)
heavy: not shown
light 1: B1 light 1
light 2: B2 light 2 with C116P, Q142C, I190C, C192P
notes: also called T8311-53

The binders below were run against T1, Human PD-L1 (human, UniProt Q9NZQ7 19-290) (assay: flow cytometry on CHO-K1 cells expressing human PD-L1).
T1 construct: whole, on cells; also called target-A
T1 sequence (Q9NZQ7 19-290): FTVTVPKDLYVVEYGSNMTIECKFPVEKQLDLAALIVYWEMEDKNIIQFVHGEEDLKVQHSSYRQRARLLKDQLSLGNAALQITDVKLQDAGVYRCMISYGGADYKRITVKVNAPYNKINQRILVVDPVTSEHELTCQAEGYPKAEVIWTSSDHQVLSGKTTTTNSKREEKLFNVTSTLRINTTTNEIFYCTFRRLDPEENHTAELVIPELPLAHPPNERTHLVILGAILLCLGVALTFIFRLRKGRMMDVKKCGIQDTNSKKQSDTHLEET
Procedure: Human PD-L1-expressing cells W315-CHOK1.hPro1.C11 (×10^5 cells/well) and 4-1BB-expressing cells WBP342-CHO-K1.hPro1.C1 were incubated with various concentrations of testing antibodies at 4° C. for 1 hour. […] The cells were then washed and resuspended in DPBS with 1% BSA. MFI of the cells was measured by a flow cytometer and analyzed by FlowJo.
As shown in FIG. 7 and Table 7, compared to the reference molecule, the T8311 variants kept the target binding ability very well.

Row | EC50 | Top (MFI) | Binder
1 | 0.184 nM | 8330 MFI | B1
2 | 0.23 nM | 8120 MFI | B2
3 | 0.186 nM | 8110 MFI | B3
4 | 0.256 nM | 8130 MFI | B4
5 | 0.177 nM | 8150 MFI | B5
6 | 0.205 nM | 8120 MFI | B6
7 | 0.192 nM | 8240 MFI | B7
8 | 0.19 nM | 7990 MFI | B8
9 | 0.213 nM | 8120 MFI | B9
10 | 0.187 nM | 8060 MFI | B10
11 | 0.179 nM | 7880 MFI | B11
12 | 0.215 nM | 7860 MFI | B12
13 | 0.153 nM | 8130 MFI | B13
14 | 0.22 nM | 8150 MFI | B14
